These results are taken from the nanobody polyreactivity screen of Harvey et al. (2022).

The series is described as follows: yeast display, Sf9 membrane polyspecificity reagent, FACS + sequencing; frameworks hold sequencing errors. In outline:
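Galactose-induced (36–48 hours) yeast carrying a synthetic nanobody display library were exposed to 10% biotinylated, detergent-solubilized Sf9 membrane reagent at 4 °C for 1 hour. FACS followed streptavidin microbead enrichment, using low and high (top ~1%) gates for expression (anti-HA) and reagent binding (streptavidin). Colony PCR, MiSeq 2 × 250 sequencing and CDR-length filtering followed. Labels for polyreactivity reflect the gate of origin.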
In the case of “QFQLLESGGGLVQAGGSLRLSCAASGRTFSYNAMGWYRKAPGIERELVAAITGGTASTYYADSVKGRFTISRDNAKNPVYFQMNSLKPEETAVYYCNRASVFHYPWYYYWGQGTQVTVSS”, the “polyreactivity (PSR sort gate)” value is listed as “high polyreactivity”.

As for “QFQLLESGGGLVQAGGSLRLSCAASGSTFSLTTMGWYRPAPGKERELVAAINSGGSTYYADSVKGRFTISRDNAKNTVYLKMNSLKPEDTAVYYCAARTKYFGRFDYWGQGTQVTVSS”, the “polyreactivity (PSR sort gate)” value was “low polyreactivity”. Turning to “QFQLLESGGGLVQAGGSLRRSCAASGFTFDYYAMGWSRQAPGKERELVAVNNWSGGDTYYADSVKGRFTISRDNAKNTVYLQMNSLKPEDTAVYYCARVERMRYVGKYYPIRDYWGQGNQVTVSS”, the “polyreactivity (PSR sort gate)” value is “high polyreactivity”. In the case of “QFQLVDSGGGLVQAGGSLRLRSAASGRTFYPYVMAWYRQAPGKEREIVAAISYTGCSTYYADSVKGRFTISRDNAKNTVYLQMNSLKPEDTAVYYCNRAKYYSGGYRYHVDYWGQGTQVTVSS”, the “polyreactivity (PSR sort gate)” value is “high polyreactivity”. Regarding “QFQLVDSGGGLVQAGGSLRLSCAASGSTFGYYAMGWYRQATGKERELVAAISWRGGSTSYADSVKGRFTISRDNAKNTVYLQMNSLIPEDTAVYLCAAGGDINKYGRQYRYDYWGQGTQVTVSS”, the “polyreactivity (PSR sort gate)” value is on record as “high polyreactivity”. Under “QFQLVEAGGGLVQAGGSLRLSCAASGSIIPNYNMGWYRQAPAKETELVAAMSISGGTTYYADSVKGRFTISRDNAKNTVYLQMNSLKPEETAVYYCAAVEYYWFLGYYYRYDYWGQGTQVTVSS” stands “high polyreactivity”. As for “QFQLVESAVVLVQAGGSLRLSCAASGGIFGSYAMGWYRQAPGKEMEFVAAIRYGSGSQYYADSVKGRFTISRDNAKNTVYLQMNSLKPEDTAVYYCATEYWGVYGYGFIYDYWGQGTQVTVSS”, the “polyreactivity (PSR sort gate)” value is reported as “low polyreactivity”. Under “QFQLVESCGGLVHAGGSLRLSCAASGSIFFSYAMGWYRQAPGKERELVAAISSGGSTYYADSVKGRFTISRDNAKNTVYLQMNSLKPEDTAVYYCAARGYRLVPVDFYYWGQGTQVTVSS” stands “low polyreactivity”; under “QFQLVESCGGLVPAGGSLRLSCAASGRILSDYAMGWYRQAPGKERELVAVISWDGTNTYYADSVKGRFPISRDNAKNTVYLQMNSLKPEDTAVYYCAATGTSYYSAYDYWGQGTQVTVSS”, “low polyreactivity”. Consider “QFQLVESGGALVQAGGSLRLSCAASGSTFTGYTMGWYRQAPGKERELVAAINWSGGRTYYADSVKGRFTISRDNAKNTVYLQMNSLKPDDTAVYYCAVRSRSLGGYLGQGTQVTVSS”, for which the “polyreactivity (PSR sort gate)” value was “high polyreactivity”. Under “QFQLVESGGGIVQAGGSLRLSCYASGTFYKYAMGWNTQAPGKERELVAAISWRGGRTYADSVKGRFTISRDNAKNTVYLQMNSLIPEDTAVYYCYKRFYPEHYYWGQGTQVTVSS” stands “high polyreactivity”. The entry for “QFQLVESGGGLDQAGGSLRLSCAASGSIFWYYAMGWYRQAPGKERELVAAISISGSTYYADSVKGRFTISRDNAKNTVYLQMNSLKPEDTAVYYCAARKFFWRSNYDYWGQGTQVTVSS” is “low polyreactivity”; for “QFQLVESGGGLDQAGGSLRLSCAATGSTFTSYAMGWYIQAPGKERELVAAITSRGGTYYADSVKGRFTISRDNAKNTVYLQMNSLKPEDTAVYYCAARATYKKYPYVKWYDYWGQGTQVTVSS” it is “high polyreactivity”. As for “QFQLVESGGGLVHAVGSLRLSCAASGRTGKNAMGWYRQAPGKERELVAAIRYNGGSTYYADSVKGRFTISRDNAKNSVYLQMNSLKPEDTAVYYCAAAFRRHNGSAFNYWGQGTQVTVSS”, the “polyreactivity (PSR sort gate)” value was “high polyreactivity”. In the case of “QFQLVESGGGLVQAGCSLRLSCAAYGSIFGGYAMGWYRQAPGKERELVAAISYRGASTYYADSVKGRFTISRDNAKNTVYLQMNILKPEDTAVYYCAVPARTRARVLYGYDYWGQGTQVTVSS”, the “polyreactivity (PSR sort gate)” value is “low polyreactivity”. Regarding “QFQLVESGGGLVQAGGILRLSCAASGSIFYHNAMGWSRQAPGKERELVAAITGSGGSTYYADSVKGRFTISRDNAKNTVYLQMNSLKPEDTAVYYCAADGYTKWWISWGYDYWGQGTQVTVSS”, the “polyreactivity (PSR sort gate)” value is listed as “low polyreactivity”.

Consider “QFQLVESGGGLVQAGGRLRLSCAASGRIFRYSAMGWYRQAPGKERQLVASISSGGSTNYADSVKGRFTISRDNAKNTVYLQMNSLKQEDTAVYYCAARYWVSGFRAGYYWGQGTQVTVSS”, for which the “polyreactivity (PSR sort gate)” value is “high polyreactivity”. The entry for “QFQLVESGGGLVQAGGRLRLSCAASGSTFLPYAMGWYRQAPGKESELVAAIRGRGGRTYYADSVKGRFTISRANAKNTVYLQMNSLKPEDSAVYYCAADVKGLSWTYDSWGQGTQVTVSS” is “high polyreactivity”.

Turning to “QFQLVESGGGLVQAGGSHRLSCAASGSIFFINAMGWYRQAPGKERELVASISQSGVSTYYADSVKGRFTISRDNAKNTVYFEMNSLKPEDTAVYYCATGPVRRARYVWSYTYYYWGQGTQVTVSS”, the “polyreactivity (PSR sort gate)” value is recorded as “low polyreactivity”. For the sequence “QFQLVESGGGLVQAGGSLRISCAATGLIYYVYAMGWYRQAPGKESELVAAIRSGGSTNNADSVKGRFTISRDNAKNTVYLQMNRLKPEDTAVYYCAVDTWYFLFQYGYYQEGDYWGQGTQVTVSS”, the “polyreactivity (PSR sort gate)” value is on record as “low polyreactivity”. As to “QFQLVESGGGLVQAGGSLRLICAASGFIFWYNAMGWYRQSPGKEREFVAAISSGGSTTYADSVKGRFTISRDNALITVYLQMNSLKPEDTAVYYCAAGSYDYDYWGQGTQVTVSS”, the “polyreactivity (PSR sort gate)” value was “low polyreactivity”.

As to “QFQLVESGGGLVQAGGSLRLSCAASGFIFSFYAMGWYRQAPGKERELVARINWTGGSTYYADSVKGRFTISRDNAKNSVYLQMNSLKPEDTAVYYCARPVRRIIGVTDEYWGQGTQVTVSS”, the “polyreactivity (PSR sort gate)” value was “low polyreactivity”. Consider “QFQLVESGGGLVQAGGSLRLSCAASGFIIRVNAMAWYRQAPGTERQLVATITWNGGSTYYADSVKGRFTISRDNAKNTVYLQMNSLKPDDTAVYYCNRVRYRGYYPGPYSYSYDYWGQGTQVTVSS”, for which the “polyreactivity (PSR sort gate)” value was “low polyreactivity”. As for “QFQLVESGGGLVQAGGSLRLSCAASGFTFDNYVMGWYRQAPGKERELVAAISKSGTSTYYADSVKGRFTISRDNAKNTVYLQMNSLKPEDTAVYYCAAALPGYGDYYYWGQGTQVTVSS”, the “polyreactivity (PSR sort gate)” value is given as “high polyreactivity”. Take “QFQLVESGGGLVQAGGSLRLSCAASGFTFWYYAMGWYRQAPGKERELVARITSRGADTYADSVKGRFTISRDNAKNTVYLQMNSLKPEDTAVYYCAVDPGFSWYEQYDYWGQGTQVTVST”: the “polyreactivity (PSR sort gate)” value was “low polyreactivity”.

For “QFQLVESGGGLVQAGGSLRLSCAASGFTFYYYTMGWYRQAPGKERELVAAITWRGGSTNYADSVKGRFTISRDNAKNTVYLQMNSLKPEDTAVYYCAAVTYWFWPGMDYWGQGTQVTVSS”, the “polyreactivity (PSR sort gate)” value was “low polyreactivity”.

Consider “QFQLVESGGGLVQAGGSLRLSCAASGFTIYLYTMGWYRQAPGKERELVATISWSGASTYYADSVKGRFTISRDNAKNTVYLQMNSLKPEDTAVYYCATRYRYRYWGQGTQVTVSS”, for which the “polyreactivity (PSR sort gate)” value was “high polyreactivity”. Under “QFQLVESGGGLVQAGGSLRLSCAASGGTFNQYAMGWYRQAPGKEREFVASISRRGGSTYYADSVKGRFTISRDNAKNTVDLQMNSLKPEDTAVYYCAADAFFRLDYYYWGQGTQVTVSS” stands “high polyreactivity”. With “QFQLVESGGGLVQAGGSLRLSCAASGIIFGNNAMGWYRQAPGKERELVAAIRWSTGTTYYADSVKGRFTISRDNAKNTVYLQMNSLKPEDTAVYYCAARLRREYGYWGQGTQVTVSS”, the “polyreactivity (PSR sort gate)” value is listed as “high polyreactivity”.

Consider “QFQLVESGGGLVQAGGSLRLSCAASGIIFSLYAMGWYIQAPGKERELVAAITTGGRTYYADSVKGRFTISRDNAKNTVYFQMNSLKPEDTAVYYCAAQGPWQGGTTLSTNRGYWGQGTQVTVSS”, for which the “polyreactivity (PSR sort gate)” value is on record as “high polyreactivity”. With “QFQLVESGGGLVQAGGSLRLSCAASGIILAYYAMGWYRKEPGKERELVSSINRSGGSTYYADSVKGRFTISRDNAKNTVYLQMISLKPEYTAVYYCAATNRGVGQRSYRYYYWGQGTQVSVSS”, the “polyreactivity (PSR sort gate)” value is recorded as “high polyreactivity”. The entry for “QFQLVESGGGLVQAGGSLRLSCAASGIMFGYYAMGWYRQAPGKERELVAALTRSGGSTYYADSVKGRFTISRDNAKNTVYLQLNSLKPEDTALYYCNGDDDGRVSSTIVEYWGQGTQVTVSS” is “low polyreactivity”; for “QFQLVESGGGLVQAGGSLRLSCAASGITFFPYAMGWYRQAPGKERELVASISDGGGTNYADSVKGRFTISRDNAKNTVYLQMNSLKPEDTAVYYCATDASTYAYYGGDYWGQGTQVTVSS” it is “low polyreactivity”; for “QFQLVESGGGLVQAGGSLRLSCAASGITFYGNAKGWYRQAPGKVREFVAAITVDGGSTYAVSVKGRFTISRDNAKNTVYLQMNSLKPEDTAVYYCNKAYLRRSLKSGYPYDSWGQGTQVTVSS” it is “low polyreactivity”. “QFQLVESGGGLVQAGGSLRLSCAASGLTIYSYSMGWYRQAPGKERELVAAITWRGGSTYYADSVKGRFTISRDHAKNTDYLQMNSVKPEDTALYYCAADPGPYGYYYWGQGNQVTVSS”: the “polyreactivity (PSR sort gate)” value is given as “low polyreactivity”. The entry for “QFQLVESGGGLVQAGGSLRLSCAASGRIFASIGMGWYRQAPGKEREFVAAINRSGGSTYYADSVKGRFTISRVNAKNSVYLQMNSLKPEDTAVYYCNKDYLYSYLWGWKVYSYDYWGQGTQVTVSS” is “low polyreactivity”; for “QFQLVESGGGLVQAGGSLRLSCAASGRIFEDSMGWYRQAPGKERELVAAIRWSGGGTYYADSVKGRFTISRDNAKNTVYLQMNSLKPEDTAVYYCATPGTGSVELYGYWGQGTQVTVSS” it is “low polyreactivity”. Turning to “QFQLVESGGGLVQAGGSLRLSCAASGRIFFIYAMGWYRQAPGKERELVAGINRTGGSTNYADSVKGRFTISRDNAKNTVYLQMNSLKPEDTAVYYCAADIYDGGFDYWGQGTQVTVSS”, the “polyreactivity (PSR sort gate)” value is on record as “low polyreactivity”. On to “QFQLVESGGGLVQAGGSLRLSCAASGRIFFRNAMGWYIQAPGKETELVADNTNGGSTNYADSEKGRFTISRDNAKYTVYLQMNSLNPEDTAVYYCAADTLGVYDGDYWGQGTQVTVSS”, for which the “polyreactivity (PSR sort gate)” value is listed as “low polyreactivity”. The entry for “QFQLVESGGGLVQAGGSLRLSCAASGRIFGPYAMGWYRQAPGKERELVASISGGGSTNYADSVKGRFTISRDNAKNTVYLQMNSLKPEDTAVYYCAADVYYQYWGWWPYDYWGQGTQVTESS” is “low polyreactivity”; for “QFQLVESGGGLVQAGGSLRLSCAASGRIFGVYARGWYRQAPGKERELVAAISSTGGSTYYADSVKGRFTISRDTAKNTVYLQMNSLKPEDTAVYYCEYDYWGQGTQVTVSS” it is “low polyreactivity”.
